Earlier results on 5 molecules are cited in patent publication US20070155650A1, “Use of cathepsin z inhibitors for the treatment of rhuematoid arthritis and other autoimmune diseases” (AVENTIS PHARMACEUTICALS INC., priority 2003, published 2007).

Where two headings read alike, the source gives them in different places.

For one series, the target named is Cathepsin Z (Homo sapiens, UniProt Q9UBR2). Particulars: result in words.
For the next series, the target named is Cathepsin B (Homo sapiens, UniProt P07858). The conditions noted are these: result in words.

Cathepsin Z, sequence (Q9UBR2 62-303): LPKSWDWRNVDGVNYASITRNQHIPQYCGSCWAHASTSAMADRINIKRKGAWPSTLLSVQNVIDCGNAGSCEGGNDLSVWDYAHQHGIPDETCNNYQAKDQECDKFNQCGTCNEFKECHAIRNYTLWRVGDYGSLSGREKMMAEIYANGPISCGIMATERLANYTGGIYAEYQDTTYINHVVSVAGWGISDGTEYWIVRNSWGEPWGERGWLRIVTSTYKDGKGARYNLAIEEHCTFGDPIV

On to `CCCNC(=O)[C@H]1O[C@@H]1C(=O)N[C@H](C(=O)N1CCC[C@H]1C(=O)O)[C@@H](C)CC` [CA-074], for which, on Cathepsin Z, the “Cathepsin Z activity inhibited or not” value was “inhibited”. The figures for the “Cathepsin B activity inhibited” value at Cathepsin B and on Cathepsin B (listed as CA-704) were “block Cathepsin B activity” and “known synthetic inhibitors of Cathepsin B”, respectively.

B1: stefin A: protein inhibitor shown to inhibit Cathepsin Z activity (protein, UniProt P01040 1-98, looked up)
Cystatin-A: MIPGGLSEAKPATPEIQEIVDKVKPQLEEKTNETYGKLEAVQYKTQVVAGTNYYIKVRAGDNKYMHLKVFKSLPGQNEDLVLTGYQVDKNKDDELTGF
On to B1, for which, in the series with Cathepsin Z, the “Cathepsin Z activity inhibited or not” value is listed as “inhibited”.

B2: stefin B: protein inhibitor shown to inhibit Cathepsin Z activity (protein, UniProt P04080 1-98, looked up)
Cystatin-B: MMCGAPSATQPATAETQHIADQVRSQLEEKENKKFPVFKAVSFKSQVVAGTNYFIKVHVGDEDFVHLRVFQSLPHENKPLTLSNYQTNKAKHDELTYF
Regarding B2, in the series with Cathepsin Z, the “Cathepsin Z activity inhibited or not” value is reported as “inhibited”.

B3: cystatin C: protein inhibitor shown to inhibit Cathepsin Z activity (protein, UniProt P01034 27-146, looked up)
Cystatin-C: SSPGKPPRLVGGPMDASVEEEGVRRALDFAVGEYNKASNDMYHSRALQVVRARKQIVAGVNYFLDVELGRTTCTKTQPNLDNCPFHDQPHLKRKAFCSFQIYAVPWQGTMTLSKSTCQDA
B3: the “Cathepsin Z activity inhibited or not” value with Cathepsin Z is reported as “inhibited”.

B4: chicken cystatin: protein inhibitor shown to inhibit Cathepsin Z activity (protein, UniProt P01038 24-139, looked up)
Cystatin: SEDRSRLLGAPVPVDENDEGLQRALQFAMAEYNRASNDKYSSRVVRVISAKRQLVSGIKYILQVEIGRTTCPKSSGDLQSCEFHDEPEMAKYTTCTFVVYSIPWLNQIKLLESKCQ
B4: the “Cathepsin Z activity inhibited or not” value with Cathepsin Z is given as “inhibited”.
